# Source: the supplement of paper PMC10567573
# ± gives the standard deviation.
# Experiment: protein stability index of a GFP-peptide fusion (GPS, HEK-293T) (PSI 1-6); higher = more stable
# [1] = treatment: DMSO, c terminus: a fixed tail appended
# [2] = treatment: MLN4924 1 uM, 8 h, c terminus: a fixed tail appended
# [3] = treatment: DMSO, c terminus: native
# [4] = treatment: MLN4924 1 uM, 8 h, c terminus: native
# 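Further: 24-mer peptide tiles fused after GFP, lentivirally expressed, FACS-sorted into six equal bins by GFP/DsRed ratio, decoded by Illumina sequencing, PSI is the read-weighted mean bin number.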
sequence,measurement,setting,value
VTFAAMQAQQGRSSLVWLFSQLYL [MCOLN1],protein stability index,[1],3.03 ± 0.67
same,protein stability index,[2],2.75 ± 0.47
HFAAASTHGALCLELLVNNGADVN [ANKRD44],protein stability index,[1],2.73 ± 0.23
same,protein stability index,[2],2.62 ± 0.38
HTLRASMRELGLLIFFLFIGVILF [KCNA4],protein stability index,[1],2.86 ± 0.53
same,protein stability index,[2],2.61 ± 0.49
APFTDEQLYMEQFTKANFWYQPSF [CARM1],protein stability index,[1],2.31 ± 0.42
same,protein stability index,[2],2.21 ± 0.26
GMLCSFRIPGAWSCAWSLNIQANN [DCAF4],protein stability index,[1],2.69 ± 0.8
same,protein stability index,[2],2 ± 0.29
KLVKKHAAQRSTETALYRKMLGNP [FKBP8],protein stability index,[1],2.95 ± 0.47
same,protein stability index,[2],3.04 ± 0.25
GWKSMIQSHPHLVAEAFRALASAQ [SPOPL],protein stability index,[1],2.4 ± 0.44
same,protein stability index,[2],2.3 ± 0.17
VRFSLGTTTHAPPGVHRRYSALRE [PPFIA4],protein stability index,[1],2.72 ± 0.19
same,protein stability index,[2],2.76 ± 0.19
FHVNLGKESRAQTLQNGRRHIHHL [BRF1],protein stability index,[1],2.66 ± 0.34
same,protein stability index,[2],2.93 ± 0.41
DVLLLGNDYIVPRHCPELAEMSRV [HNF4A],protein stability index,[1],2.65 ± 0.2
same,protein stability index,[2],2.49 ± 0.3
SSSLAQHQRKHAGEKPFECRQRLI [ZNF8],protein stability index,[1],3.74 ± 0.18
same,protein stability index,[2],3.69 ± 0.17
RESCPPLGLETLKITDFQLHASTV [CPXM2],protein stability index,[1],3.29 ± 0.15
same,protein stability index,[2],3.32 ± 0.14
FIMLSCVQLQRIPLSAVYRICLGK [TPRG1],protein stability index,[1],3.06 ± 0.75
same,protein stability index,[2],2.01 ± 0.43
EQHDLVYGDWTSGENSDGCYEHFA [CLPTM1],protein stability index,[1],4.53 ± 0.22
same,protein stability index,[2],4.41 ± 0.36
CHSFISGTAPLNQETAEFFLSLDI [ACSBG2],protein stability index,[1],3.01 ± 1.4
same,protein stability index,[2],2.6 ± 1.6
LGPCVVGYGIYYFIYSTWKGRTIY [SAT2],protein stability index,[1],2.97 ± 0.28
same,protein stability index,[2],2.97 ± 0.51
MGPAPRARPWTRDSASLPRKPSVP [RASAL3],protein stability index,[1],4.08 ± 0.14
same,protein stability index,[2],4.12 ± 0.23
LAFVIVLLAHRLRRWHKSRLLQAS [PCDHGA10],protein stability index,[1],2.15 ± 0.48
same,protein stability index,[2],2.21 ± 0.38
ILEFAEKEGMVSSGQNLLAVESQ [PTPN9],protein stability index,[3],2.96 ± 0.65
same,protein stability index,[4],3.03 ± 0.37
GFEFSVPFTEMKLRPRNFRSPAGG [TNXB],protein stability index,[2],3.66 ± 0.66
REKGGKVLVHCEAGISRSPTICMA [DUSP5],protein stability index,[1],2.93 ± 0.27
same,protein stability index,[2],3.03 ± 0.38
VRGPLQDSSWYEPSAELVQTRMAV [ZNF232],protein stability index,[1],2.96 ± 0.17
same,protein stability index,[2],3.09 ± 0.24
NEYFFDRNRPSFDAILYYYQSGGR [KCNA3],protein stability index,[1],2.34 ± 0.3
same,protein stability index,[2],2.42 ± 0.18
LNFKAEPESETSILLSWTPPRSDT [PTPRD],protein stability index,[1],3.3 ± 0.36
same,protein stability index,[2],3.45 ± 0.28
IGTQGPLENTYRDFWLMVWEQKVL [PTPN9],protein stability index,[1],2.31 ± 0.24
same,protein stability index,[2],1.79 ± 0.29
REVRRAQARLLNPSATRAKPGPQD [NOP53],protein stability index,[1],4.75 ± 0.28
same,protein stability index,[2],4.66 ± 0.14
NRNHNEGMVTRCIIEVLSNALSKS [CHGB],protein stability index,[1],2.25 ± 0.24
same,protein stability index,[2],2.1 ± 0.27
VSYQLADGGEPQSVQVDGQARTQK [TNXB],protein stability index,[1],5.184 ± 0.024
same,protein stability index,[2],5.21 ± 0.1
CLKEFPEKQELHRNMLGLLGNVAE [ZER1],protein stability index,[1],3.19 ± 0.15
same,protein stability index,[2],3.3 ± 0.23
AIDQYRVCQEVLERSRDVVDDVSV [RHOBTB2],protein stability index,[1],4.66 ± 0.31
same,protein stability index,[2],4.78 ± 0.13
HVKMMLSGVCLFAVFIALLPILGH [PTGFR],protein stability index,[1],2.97 ± 0.83
same,protein stability index,[2],2.79 ± 0.78
LNQGSVFQEYDTDCEVFRQRFRQF [ZNF449],protein stability index,[1],2.98 ± 0.27
same,protein stability index,[2],3.19 ± 0.12
CPGLRLPGSLAGRRAGPAIWAQGW [AUH],protein stability index,[1],2.83 ± 0.15
same,protein stability index,[2],1.82 ± 0.35
VRSKYNDDIRKGIVLLEELLPKGS [FIS1],protein stability index,[1],2.87 ± 0.04
same,protein stability index,[2],2.84 ± 0.14
QRTHTGEKPYKCPECGEIFAHSSN [ZNF263],protein stability index,[1],3.6 ± 0.37
same,protein stability index,[2],4.07 ± 0.47
RGKKLMVLTEPILIETYTGLMSFI [TPRG1],protein stability index,[1],2.95 ± 0.34
same,protein stability index,[2],2.6 ± 0.48
RLDLAAVTLRRGLRSRASRCRPRS [FAM189A2],protein stability index,[1],3.7 ± 0.15
same,protein stability index,[2],3.89 ± 0.32
SGDAAAQPAFTGIKGKEGSALTEG [EPB41L3],protein stability index,[1],5.55 ± 0.24
same,protein stability index,[2],5.32 ± 0.33
NSHVYNGRTHQWKPLYPDDYVHIS [ADAMTSL2],protein stability index,[1],2.78 ± 0.31
same,protein stability index,[2],2.8 ± 0.34
CLRVGMLKEGVRLDRVRGGRQKYK [ESRRA],protein stability index,[1],3.12 ± 0.24
same,protein stability index,[2],3.42 ± 0.46
HLVAGGGAGAVSRTCTAPLDRLKV [SLC25A25],protein stability index,[1],3.11 ± 0.35
same,protein stability index,[2],3.25 ± 0.22
TYRKVMNWKETLVFPPEVPISEKA [STK38L],protein stability index,[1],3.09 ± 0.29
same,protein stability index,[2],3.24 ± 0.29
QTEETQETALTLACCGGFLEVADF [ANKRD17],protein stability index,[1],3.79 ± 0.28
same,protein stability index,[2],3.96 ± 0.28
ARSVGLKWRKVGRSLQRGCRALRD [TRADD],protein stability index,[1],2.57 ± 0.32
same,protein stability index,[2],2.55 ± 0.46
KLGLHDNHWVPACHSFNRAIHKKA [FBXO34],protein stability index,[1],2.79 ± 0.14
same,protein stability index,[2],2.91 ± 0.18
QGQPDPAPRPGPPAGTPPPTARHF [MOSPD3],protein stability index,[1],3.77 ± 0.21
same,protein stability index,[2],3.65 ± 1.1
AMAAAEGSSGPAGLTLGRSFSNYR [SEPHS2],protein stability index,[1],3.82 ± 0.16
same,protein stability index,[2],3.63 ± 0.23
PAYATTRIRSQIGNTESELKKLAE [GDAP1],protein stability index,[1],4.53 ± 0.095
same,protein stability index,[2],4.53 ± 0.18
RTNDGKITYPPGVKEISDKISKEE [PDS5B],protein stability index,[1],5.02 ± 0.19
same,protein stability index,[2],5.197 ± 0.006
TEDVNTLDSEKRTPLHVAAFLGDA [ANKRD44],protein stability index,[1],4.72 ± 0.3
same,protein stability index,[2],4.74 ± 0.11
LHEALQDYEAGQHMEDPRRAGKML [ESRRG],protein stability index,[1],4.74 ± 0.29
same,protein stability index,[2],4.68 ± 0.38
MNTEAEQQLLHHARNGNAEEVRQL [OSBPL1A],protein stability index,[1],5.24 ± 0.28
same,protein stability index,[2],5.47 ± 0.12
RYCMQLSQIQGLIGSVEEQLAQLR [KRT16],protein stability index,[1],2.28 ± 0.45
same,protein stability index,[2],2.49 ± 0.28
EGYRVSQALRENTYPFLAMIMLKD [FAF2],protein stability index,[1],2.36 ± 0.2
same,protein stability index,[2],2.44 ± 0.29
AATQVFFALGLGFGGVIAFSSYNK [SLC6A17],protein stability index,[1],2.64 ± 0.43
same,protein stability index,[2],2.83 ± 0.67
FVADEGICYLPHWMMQNLLLEEGG [UFD1],protein stability index,[1],2.36 ± 0.62
same,protein stability index,[2],2.28 ± 0.38
DILPRWAIIGWLLTTCTSNVAASN [INTS3],protein stability index,[1],3.24 ± 0.47
same,protein stability index,[2],3.08 ± 0.51
QYYDDEKKTWKILTIMPYNSAHHC [KLHL14],protein stability index,[1],2.56 ± 0.43
same,protein stability index,[2],2.59 ± 0.42
ITLLILAELLIFSVPIVYEKYKTQ [RTN3],protein stability index,[1],3.41 ± 0.32
same,protein stability index,[2],3.4 ± 0.94
EVEAKFKRYESHPVCADLQAKILQ [CHCHD3],protein stability index,[1],3.66 ± 0.21
same,protein stability index,[2],3.58 ± 0.078
MAREHAFNIGLPDNIVNCNEFLCT [ZNF277],protein stability index,[1],2.94 ± 0.21
same,protein stability index,[2],2.92 ± 0.57
HSSWTPPNAQYWSQFHSVRPQGPQ [DNAJC4],protein stability index,[1],3.23 ± 0.053
same,protein stability index,[2],3.34 ± 0.22
PVPATPILQLEECCTHNNSATLSW [TRIM9],protein stability index,[1],3.27 ± 0.16
same,protein stability index,[2],3.38 ± 0.18
YSIPEELEKGSFVGNISKDLGLAP [PCDHGA10],protein stability index,[1],3.59 ± 0.4
same,protein stability index,[2],3.7 ± 0.29
SRKNATQPPNAEEESGSSSASEEE [INTS3],protein stability index,[1],5.53 ± 0.12
same,protein stability index,[2],5.71 ± 0.14
PDSPATGAHWMRQLVSFQKLKLTN [TBX5],protein stability index,[1],2.92 ± 0.35
same,protein stability index,[2],3 ± 0.21
AIHQDPPDECGKTEFTRFLCSSPL [ATE1],protein stability index,[1],3.78 ± 0.24
same,protein stability index,[2],3.82 ± 0.17
TPTSPECDYSQYFKTIEELRDKIM [KRT15],protein stability index,[1],3.4 ± 0.27
same,protein stability index,[2],3.6 ± 0.43
LVNPTCQVLVKDFTFEGFSRLRFL [ZER1],protein stability index,[1],2.02 ± 0.23
same,protein stability index,[2],2.27 ± 0.29
ASQPRGPALLFPATRGVPAKRLLD [TRIB1],protein stability index,[1],3.72 ± 0.62
same,protein stability index,[2],3.9 ± 0.36
KEEEEKDHNEAMKPEEPPQNLLRE [PCMTD1],protein stability index,[1],5.39 ± 0.77
same,protein stability index,[2],5.88 ± 0.09
LEFRKSMYEEEINETRRKHETRLV [LMNB1],protein stability index,[1],4.02 ± 0.21
same,protein stability index,[2],4.06 ± 0.25
RRWHKSRLLQASGGGLTGVSGSHF [PCDHGA10],protein stability index,[1],2.67 ± 0.21
same,protein stability index,[2],2.83 ± 0.16
NLQSLKFQGGHGPAATLLRRSKT [RIPK4],protein stability index,[3],3.18 ± 0.21
same,protein stability index,[4],3.27 ± 0.14
RLMDVCATSRTDREIKVTLVFEHV [CDK4],protein stability index,[1],2.65 ± 0.57
same,protein stability index,[2],2.5 ± 0.15
RENGNNSSDKVRGIETLESVPIIG [PHTF1],protein stability index,[1],4.8 ± 0.33
same,protein stability index,[2],4.53 ± 0.36
DLFGWSQLIYNHITTRVNSEQEHF [ADD1],protein stability index,[1],2.72 ± 0.51
same,protein stability index,[2],2.55 ± 0.41
TKKHIPYREHKSLTGTARYMSINT [CSNK1G1],protein stability index,[1],2.51 ± 0.15
same,protein stability index,[2],2.65 ± 0.23
YVASHKIEKEEQEKKRKEEEERRR [ACBD3],protein stability index,[1],3.2 ± 1.1
same,protein stability index,[2],4.37 ± 0.73
NLLRDDRVLQNLLTIEERYLPQCS [CCND2],protein stability index,[1],2.49 ± 0.26
same,protein stability index,[2],2.58 ± 0.35
GTPSLLRGKRGGHATNYRIVAPRS [EMID1],protein stability index,[1],4.1 ± 0.12
same,protein stability index,[2],3.88 ± 0.32
RPNDDSLAFLDKIKSVKESLQESV [IQUB],protein stability index,[1],3.64 ± 0.034
same,protein stability index,[2],3.34 ± 0.32
ESSSRGEAGAPGEEDIQGPTKADT [CHGB],protein stability index,[1],5.64 ± 0.29
same,protein stability index,[2],5.43 ± 0.32
LGGEQAEEKAFESVIEPVQESSFR [MIA2],protein stability index,[1],5.16 ± 0.54
same,protein stability index,[2],5.44 ± 0.1
RMQYAPDLMKRLRFALIPAPELVE [KLHL14],protein stability index,[1],2.25 ± 0.1
same,protein stability index,[2],2.05 ± 0.088
CVDVVFYNPDLKKVVEAHKIVLCA [RHOBTB3],protein stability index,[1],3.01 ± 1.1
same,protein stability index,[2],2.74 ± 0.81
DNARLAADDFRTKYEHELALRQTV [KRT16],protein stability index,[1],4.01 ± 0.17
same,protein stability index,[2],4.11 ± 0.26
VLKTRMALRKTGQYSGMLDCARRI [SLC25A25],protein stability index,[1],2.53 ± 0.17
same,protein stability index,[2],2.78 ± 0.18
MQATADSTKMDCVWSNWKSQAIDL [RTN1],protein stability index,[1],3.17 ± 0.11
same,protein stability index,[2],3.41 ± 0.36
